# From PMC7524362, “Functional analysis and cryo-electron microscopy of Campylobacter jejuni serine protease HtrA” (Gut Microbes, 2020)
# Values joined by “and” are separate entries in the source; they are usually repeats but may differ in a detail not shown here. Equal values may be shown once.
# B1: HtrAEc S210A, proteolytically inactive variant of HtrA/DegP from E. coli (plasmid pJS17) (enzyme, UniProt P0C0V0 27-474, looked up)
# chain: AETSSATTAQQMPSLAPMLEKVMPSVVSINVEGSTTVNTPRMPRNFQQFFGDDSPFCQEGSPFQSSPFCQGGQGGNGGGQQQKFMALGSGVIIDADKGYVVTNNHVVDNATVIKVQLSDGRKFDAKMVGKDPRSDIALIQIQNPKNLTAIKMADSDALRVGDYTVAIGNPFGLGETVTSGIVSALGRSGLNAENYENFIQTDAAINRGNAGGALVNLNGELIGINTAILAPDGGNIGIGFAIPSNMVKNLTSQMVEYGQVKRGELGIMGTELNSELAKAMKVDAQRGAFVSQVLPNSSAAKAGIKAGDVITSLNGKPISSFAALRAQVGTMPVGSKLTLGLLRDGKQVNVNLELQQSSQNQVDSSSIFNGIEGAEMSNKGKDQGVVVNNVKTGTPAAQIGLKKGDVIIGANQQAVKNIAELRKVLDSKPSVLALNIQRGDSTIYLLMQ
# notes: also called S/A mutant of HtrAEc
# Experiments:
# [1] = molecular target: HtrACj S197A, expressed without the predicted signal peptide (residues 17-472), protease-inactive mu (Campylobacter jejuni (strain 81-176)); test: cryo-EM structure
# [2] = molecular target: HtrACj S197A, proteolytically inactive variant (plasmid pUZCj5) (Campylobacter jejuni (strain NCTC11168)) (UniProt Q0P928); test: SEC; Superose 12HR10/30, 50 mM Na2HPO4/NaH2PO4 pH 7.4, 300 mM NaCl, room temperature, 41 µM HtrA, no substrate; S/A mutants purified in presence of urea and refolded
# [3] = molecular target: HtrACj S197A, proteolytically inactive variant (plasmid pUZCj5) (Campylobacter jejuni (strain NCTC11168)) (UniProt Q0P928); test: SEC; Superose 12HR10/30, 50 mM Na2HPO4/NaH2PO4 pH 7.4, 300 mM NaCl, room temperature, 41 µM HtrA, no substrate; proteins purified under native conditions without refolding step
# [4] = molecular target: HtrACj S197A, proteolytically inactive variant (plasmid pUZCj5) (Campylobacter jejuni (strain NCTC11168)) (UniProt Q0P928); test: SEC; Superose 12HR10/30, 50 mM Na2HPO4/NaH2PO4 pH 7.4, 300 mM NaCl, room temperature, 41 µM HtrA, no substrate; S/A mutants purified in presence of urea and refolded; remark: listed apart in the source
# [5] = molecular target: HtrACj wild type, proteolytically active (plasmid pUZCj4) (Campylobacter jejuni (strain NCTC11168)) (UniProt Q0P928); test: SEC; Superose 12HR10/30, 50 mM Na2HPO4/NaH2PO4 pH 7.4, 300 mM NaCl, room temperature, 41 µM HtrA, no substrate; proteins purified under native conditions without refolding step
# [6] = molecular target: HtrACj wild type, proteolytically active (plasmid pUZCj4) (Campylobacter jejuni (strain NCTC11168)) (UniProt Q0P928); test: SEC; Superose 12HR10/30, 50 mM Na2HPO4/NaH2PO4 pH 7.4, 300 mM NaCl, room temperature; 41 µM HtrA pre-incubated with 41 µM β-casein (molar ratio 1:1) for 10 min at 37°C
# [7] = molecular target: HtrACj wild type, proteolytically active (plasmid pUZCj4) (Campylobacter jejuni (strain NCTC11168)) (UniProt Q0P928); test: casein zymography (non-reducing SDS-PAGE); 50 ng purified HtrA in Laemmli buffer on 10% SDS-PAGE gels with 0.1% casein, non-reducing, renatured in 2.5% Triton X-100, developed overnight at 37°C
# [8] = molecular target: HtrAHp S221A, proteolytically inactive variant of HtrA from H. pylori 26695 (plasmid pUZ3) (Helicobacter pylori (strain 26695)); test: SEC; Superose 12HR10/30, 50 mM Na2HPO4/NaH2PO4 pH 7.4, 300 mM NaCl, room temperature, 41 µM HtrA, no substrate; S/A mutants purified in presence of urea and refolded
# [9] = molecular target: the molecule itself; test: as above
molecule,measurement,setting,value
"HtrACj S197A, expressed without the predicted signal peptide (residues 17-472), protease-inactive mu (enzyme)",stoichiometry N,[1],12
"HtrACj S197A, proteolytically inactive variant (plasmid pUZCj5) (from UniProt Q0P928 1-472) (enzyme)",stoichiometry N,[2],12
same,stoichiometry N,[3],12
same,stoichiometry N,[4],> 12
"HtrACj wild type, proteolytically active (plasmid pUZCj4) (from UniProt Q0P928 1-472) (enzyme)",stoichiometry N,[5],6
same,stoichiometry N,[6],6
same,stoichiometry N,[7],3
"HtrAHp S221A, proteolytically inactive variant of HtrA from H. pylori 26695 (plasmid pUZ3) (enzyme)",stoichiometry N,[8],3 and 6
B1,stoichiometry N,[9],6
